For series [1], the target named is Taq DNA polymerase (Fig. 4A) (UniProt P19821 1-832). The series can be described thus: EMSA; no Mg2+; 10 mM Tris-HCl pH 7.9, 50 mM KCl, 1 mM EDTA, 5% glycerol, 1 mM DTT, 25 ug/ml BSA; no MgCl2, no poly(dI-dC); 20 min at room temperature; 6% PAGE in 0.5X TBE. Particulars: protein: commercial; label: 5' biotin. A general note: Mobility shift assays separate free from complexed probe on a gel.

Series [2] addresses T1, KOD DNA polymerase, purified (pET22b-KOD) (UniProt D0VWU9 1-774).
T1 sequence: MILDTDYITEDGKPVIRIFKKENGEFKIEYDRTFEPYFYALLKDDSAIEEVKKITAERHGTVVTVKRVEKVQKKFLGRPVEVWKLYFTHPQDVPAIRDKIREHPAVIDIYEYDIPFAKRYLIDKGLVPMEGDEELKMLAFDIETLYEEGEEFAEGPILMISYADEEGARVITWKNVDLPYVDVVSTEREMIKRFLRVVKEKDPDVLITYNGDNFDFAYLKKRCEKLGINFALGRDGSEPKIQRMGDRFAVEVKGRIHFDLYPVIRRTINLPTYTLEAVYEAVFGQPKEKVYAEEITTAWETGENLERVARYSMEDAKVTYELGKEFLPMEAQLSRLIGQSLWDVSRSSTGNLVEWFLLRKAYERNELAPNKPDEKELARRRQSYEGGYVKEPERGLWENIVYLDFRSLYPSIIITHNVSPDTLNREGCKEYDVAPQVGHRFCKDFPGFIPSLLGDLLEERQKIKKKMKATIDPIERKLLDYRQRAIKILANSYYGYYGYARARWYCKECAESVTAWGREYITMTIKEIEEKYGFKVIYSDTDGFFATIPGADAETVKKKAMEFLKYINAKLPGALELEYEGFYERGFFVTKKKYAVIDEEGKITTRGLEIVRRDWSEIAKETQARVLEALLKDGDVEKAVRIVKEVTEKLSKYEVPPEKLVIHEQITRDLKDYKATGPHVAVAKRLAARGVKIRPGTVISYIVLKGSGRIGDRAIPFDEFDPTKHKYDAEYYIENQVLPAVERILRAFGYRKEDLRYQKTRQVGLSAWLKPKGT
The series is described as follows: EMSA; 2 nM DNA, no Mg2+; 10 mM Tris-HCl pH 7.9, 50 mM KCl, 1 mM EDTA, 5% glycerol, 1 mM DTT, 25 ug/ml BSA; no MgCl2, no poly(dI-dC); 20 min at room temperature; 6% PAGE in 0.5X TBE. Particulars: protein: recombinant; tags: His; label: 5' biotin.

For orientation: Kd means the equilibrium constant for the complex coming apart.

Chain of Taq DNA polymerase (Fig. 4A) (P19821 whole entry): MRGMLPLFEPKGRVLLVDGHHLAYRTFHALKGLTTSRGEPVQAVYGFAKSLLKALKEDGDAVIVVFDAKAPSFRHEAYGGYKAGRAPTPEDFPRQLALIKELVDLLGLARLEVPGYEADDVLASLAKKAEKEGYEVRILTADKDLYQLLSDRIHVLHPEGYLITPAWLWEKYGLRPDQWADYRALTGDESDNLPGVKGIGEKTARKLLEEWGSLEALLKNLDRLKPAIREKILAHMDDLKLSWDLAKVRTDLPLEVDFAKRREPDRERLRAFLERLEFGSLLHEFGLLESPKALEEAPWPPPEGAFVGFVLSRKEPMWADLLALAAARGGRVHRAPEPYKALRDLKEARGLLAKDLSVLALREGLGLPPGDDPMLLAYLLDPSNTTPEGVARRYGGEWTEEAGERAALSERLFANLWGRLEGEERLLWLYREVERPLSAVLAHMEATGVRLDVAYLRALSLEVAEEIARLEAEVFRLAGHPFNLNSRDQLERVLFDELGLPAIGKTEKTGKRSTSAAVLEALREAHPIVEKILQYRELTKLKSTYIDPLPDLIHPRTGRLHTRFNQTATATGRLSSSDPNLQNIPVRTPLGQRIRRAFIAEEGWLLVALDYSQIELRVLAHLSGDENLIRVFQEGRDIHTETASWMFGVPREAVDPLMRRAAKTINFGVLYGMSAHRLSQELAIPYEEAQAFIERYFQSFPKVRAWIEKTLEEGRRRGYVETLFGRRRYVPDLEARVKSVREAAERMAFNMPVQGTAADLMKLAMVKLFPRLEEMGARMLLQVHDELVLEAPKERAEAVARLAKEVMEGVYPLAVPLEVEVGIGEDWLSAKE

For the molecule TACCGAGCTCTTACGCGTGCCTCTGACTTGCCTCAGAGC (ssDNA) [Bio-Olig2.5], the binding result in series [1] is on record as “no binding”. In addition, in series [2], the Kd is around 40 nM.

(Values after paper PMC5792436, “TT(N)mGCCTC inhibits archaeal family B DNA polymerases”.)
